This is an account of results in US20240360194A1, “New Peptides as Potent and Selective GIP Receptor Agonists” (Sanofi, priority 2021, published 2024).

Numbered stars: 1 amine (or outer) side, 2 acyl side, 3 side chain; on linkers, the order of the positions; unused ones are H or OH. Square brackets hold non-standard residues; d marks the D form. Side chains are listed from the residue outwards. Ends that are not written are not given here. * marks the point of attachment. C18 diacid = O=C(O)CCCCCCCCCCCCCCCCC(=O)*; γGlu = O=C(O)[C@H](CCC(=O)[*:2])N[*:1]; AEEA = NCCOCCOCC(=O)O; Aib = CC(C)(N)C(=O)O

First the molecules themselves.
T1: human GIP receptor (human, UniProt P48546 22-466)
T1 sequence (looked up): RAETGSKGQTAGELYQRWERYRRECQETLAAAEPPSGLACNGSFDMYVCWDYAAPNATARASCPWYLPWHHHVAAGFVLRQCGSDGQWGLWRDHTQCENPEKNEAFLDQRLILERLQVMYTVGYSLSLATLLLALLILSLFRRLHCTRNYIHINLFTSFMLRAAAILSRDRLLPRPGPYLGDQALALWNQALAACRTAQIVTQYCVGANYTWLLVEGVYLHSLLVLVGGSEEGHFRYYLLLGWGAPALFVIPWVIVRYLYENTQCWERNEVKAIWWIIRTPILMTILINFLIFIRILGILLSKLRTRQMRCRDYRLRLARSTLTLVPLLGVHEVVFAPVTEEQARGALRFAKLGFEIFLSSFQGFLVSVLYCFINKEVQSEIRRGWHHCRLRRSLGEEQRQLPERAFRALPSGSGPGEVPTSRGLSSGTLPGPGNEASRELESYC

B1: SEQ ID NO: 30 (peptide)
peptide: Y[Aib]EGTFISDLSI[Aib]K([AEEA-AEEA-γGlu-C18 diacid])DRIHQ[Aib]EFIEWLLAQRPSSGAPPPS-NH2
modifications: N-terminus assumed
SMILES: CC[C@H](C)[C@H](NC(=O)[C@H](CCCNC(=N)N)NC(=O)[C@H](CC(=O)O)NC(=O)[C@H](CCCCNC(=O)COCCOCCNC(=O)COCCOCCNC(=O)CC[C@H](NC(=O)CCCCCCCCCCCCCCCCC(=O)O)C(=O)O)NC(=O)C(C)(C)NC(=O)[C@@H](NC(=O)[C@H](CO)NC(=O)[C@H](CC(C)C)NC(=O)[C@H](CC(=O)O)NC(=O)[C@H](CO)NC(=O)[C@@H](NC(=O)[C@H](Cc1ccccc1)NC(=O)[C@@H](NC(=O)CNC(=O)[C@H](CCC(=O)O)NC(=O)C(C)(C)NC(=O)[C@@H](N)Cc1ccc(O)cc1)[C@@H](C)O)[C@@H](C)CC)[C@@H](C)CC)C(=O)N[C@@H](Cc1c[nH]cn1)C(=O)N[C@@H](CCC(N)=O)C(=O)NC(C)(C)C(=O)N[C@@H](CCC(=O)O)C(=O)N[C@@H](Cc1ccccc1)C(=O)N[C@H](C(=O)N[C@@H](CCC(=O)O)C(=O)N[C@@H](Cc1c[nH]c2ccccc12)C(=O)N[C@@H](CC(C)C)C(=O)N[C@@H](CC(C)C)C(=O)N[C@@H](C)C(=O)N[C@@H](CCC(N)=O)C(=O)N[C@@H](CCCNC(=N)N)C(=O)N1CCC[C@H]1C(=O)N[C@@H](CO)C(=O)N[C@@H](CO)C(=O)NCC(=O)N[C@@H](C)C(=O)N1CCC[C@H]1C(=O)N1CCC[C@H]1C(=O)N1CCC[C@H]1C(=O)N[C@@H](CO)C(N)=O)[C@@H](C)CC
notes: Synthetic peptide, 39 residues (Arg at 30)
B2: SEQ ID NO: 36 (peptide)
peptide: Y[Aib]EGTFISDLSI[Aib]LEEQK([AEEA-AEEA-γGlu-C18 diacid])Q[Aib]EFIEWLLAQGPSSGAPPPS-NH2
modifications: N-terminus assumed
SMILES: CC[C@H](C)[C@H](NC(=O)[C@H](Cc1ccccc1)NC(=O)[C@H](CCC(=O)O)NC(=O)C(C)(C)NC(=O)[C@H](CCC(N)=O)NC(=O)[C@H](CCCCNC(=O)COCCOCCNC(=O)COCCOCCNC(=O)CC[C@H](NC(=O)CCCCCCCCCCCCCCCCC(=O)O)C(=O)O)NC(=O)[C@H](CCC(N)=O)NC(=O)[C@H](CCC(=O)O)NC(=O)[C@H](CCC(=O)O)NC(=O)[C@H](CC(C)C)NC(=O)C(C)(C)NC(=O)[C@@H](NC(=O)[C@H](CO)NC(=O)[C@H](CC(C)C)NC(=O)[C@H](CC(=O)O)NC(=O)[C@H](CO)NC(=O)[C@@H](NC(=O)[C@H](Cc1ccccc1)NC(=O)[C@@H](NC(=O)CNC(=O)[C@H](CCC(=O)O)NC(=O)C(C)(C)NC(=O)[C@@H](N)Cc1ccc(O)cc1)[C@@H](C)O)[C@@H](C)CC)[C@@H](C)CC)C(=O)N[C@@H](CCC(=O)O)C(=O)N[C@@H](Cc1c[nH]c2ccccc12)C(=O)N[C@@H](CC(C)C)C(=O)N[C@@H](CC(C)C)C(=O)N[C@@H](C)C(=O)N[C@@H](CCC(N)=O)C(=O)NCC(=O)N1CCC[C@H]1C(=O)N[C@@H](CO)C(=O)N[C@@H](CO)C(=O)NCC(=O)N[C@@H](C)C(=O)N1CCC[C@H]1C(=O)N1CCC[C@H]1C(=O)N1CCC[C@H]1C(=O)N[C@@H](CO)C(N)=O
notes: Synthetic peptide, 39 residues
B3: SEQ ID NO: 37 (peptide)
peptide: Y[Aib]EGTFISDLSI[Aib]LDRIK([AEEA-AEEA-γGlu-C18 diacid])Q[Aib]EFIEWLLAQGPSSGAPPPS-NH2
modifications: N-terminus assumed
SMILES: CC[C@H](C)[C@H](NC(=O)[C@H](CCCNC(=N)N)NC(=O)[C@H](CC(=O)O)NC(=O)[C@H](CC(C)C)NC(=O)C(C)(C)NC(=O)[C@@H](NC(=O)[C@H](CO)NC(=O)[C@H](CC(C)C)NC(=O)[C@H](CC(=O)O)NC(=O)[C@H](CO)NC(=O)[C@@H](NC(=O)[C@H](Cc1ccccc1)NC(=O)[C@@H](NC(=O)CNC(=O)[C@H](CCC(=O)O)NC(=O)C(C)(C)NC(=O)[C@@H](N)Cc1ccc(O)cc1)[C@@H](C)O)[C@@H](C)CC)[C@@H](C)CC)C(=O)N[C@@H](CCCCNC(=O)COCCOCCNC(=O)COCCOCCNC(=O)CC[C@H](NC(=O)CCCCCCCCCCCCCCCCC(=O)O)C(=O)O)C(=O)N[C@@H](CCC(N)=O)C(=O)NC(C)(C)C(=O)N[C@@H](CCC(=O)O)C(=O)N[C@@H](Cc1ccccc1)C(=O)N[C@H](C(=O)N[C@@H](CCC(=O)O)C(=O)N[C@@H](Cc1c[nH]c2ccccc12)C(=O)N[C@@H](CC(C)C)C(=O)N[C@@H](CC(C)C)C(=O)N[C@@H](C)C(=O)N[C@@H](CCC(N)=O)C(=O)NCC(=O)N1CCC[C@H]1C(=O)N[C@@H](CO)C(=O)N[C@@H](CO)C(=O)NCC(=O)N[C@@H](C)C(=O)N1CCC[C@H]1C(=O)N1CCC[C@H]1C(=O)N1CCC[C@H]1C(=O)N[C@@H](CO)C(N)=O)[C@@H](C)CC
notes: as for B2
B4: SEQ ID NO: 22 (peptide)
peptide: Y[Aib]EGTFISDLSI[Aib]K([AEEA-AEEA-γGlu-C18 diacid])DR[Aib]HQ[Aib]EFIEWLLAQRPSSGAPPPS-NH2
modifications: N-terminus assumed
SMILES: CC[C@H](C)[C@H](NC(=O)[C@H](Cc1ccccc1)NC(=O)[C@H](CCC(=O)O)NC(=O)C(C)(C)NC(=O)[C@H](CCC(N)=O)NC(=O)[C@H](Cc1c[nH]cn1)NC(=O)C(C)(C)NC(=O)[C@H](CCCNC(=N)N)NC(=O)[C@H](CC(=O)O)NC(=O)[C@H](CCCCNC(=O)COCCOCCNC(=O)COCCOCCNC(=O)CC[C@H](NC(=O)CCCCCCCCCCCCCCCCC(=O)O)C(=O)O)NC(=O)C(C)(C)NC(=O)[C@@H](NC(=O)[C@H](CO)NC(=O)[C@H](CC(C)C)NC(=O)[C@H](CC(=O)O)NC(=O)[C@H](CO)NC(=O)[C@@H](NC(=O)[C@H](Cc1ccccc1)NC(=O)[C@@H](NC(=O)CNC(=O)[C@H](CCC(=O)O)NC(=O)C(C)(C)NC(=O)[C@@H](N)Cc1ccc(O)cc1)[C@@H](C)O)[C@@H](C)CC)[C@@H](C)CC)C(=O)N[C@@H](CCC(=O)O)C(=O)N[C@@H](Cc1c[nH]c2ccccc12)C(=O)N[C@@H](CC(C)C)C(=O)N[C@@H](CC(C)C)C(=O)N[C@@H](C)C(=O)N[C@@H](CCC(N)=O)C(=O)N[C@@H](CCCNC(=N)N)C(=O)N1CCC[C@H]1C(=O)N[C@@H](CO)C(=O)N[C@@H](CO)C(=O)NCC(=O)N[C@@H](C)C(=O)N1CCC[C@H]1C(=O)N1CCC[C@H]1C(=O)N1CCC[C@H]1C(=O)N[C@@H](CO)C(N)=O
notes: as for B2

In the first assay the target is T1, human GIP receptor. The assay is described as follows: cell-based or functional assay.
On to B1, for which the “EC50 hGIPR 0% HSA (cAMP, HEK-293)” value was determined as 0.48 pM and the “EC50 hGIPR 0.1% BSA (cAMP, HEK-293)” value came to 11 pM.
For B2, in that order: 0.12 pM and 28.8 pM.
Consider B3, for which the “EC50 hGIPR 0% HSA (cAMP, HEK-293)” value came out at 0.15 pM and the “EC50 hGIPR 0.1% BSA (cAMP, HEK-293)” value turned out to be 20.1 pM.
On the same counts, the results for B4 are 0.16 pM and 6.66 pM.

In a further assay the target is T2, human GLP-1 receptor (human, UniProt P43220 24-463). The assay is described as follows: cell-based or functional assay.
On to B1, for which the “EC50 hGLP-1R 0.1% BSA (cAMP, HEK-293)” value was greater than 10000 pM.
For the molecule B2, the “EC50 hGLP-1R 0.1% BSA (cAMP, HEK-293)” value was greater than 10000 pM.
Turning to B3, the “EC50 hGLP-1R 0.1% BSA (cAMP, HEK-293)” value was greater than 10000 pM.
Same read-out and setting: to B4 belongs greater than 10000 pM.

The next assay concerns the target T1, human GIP receptor. Put plainly: cell-based or functional assay. This is another data set of the same source.
As for B1, the “hGIPR EC50 (cAMP, human adipocytes)” value stood at 500 pM and the “hGIPR Emax (cAMP, human adipocytes)” value was found to be 138%.
Take B2: the “hGIPR EC50 (cAMP, human adipocytes)” value was determined as 300 pM and the “hGIPR Emax (cAMP, human adipocytes)” value is 104%.
Take B3: the “hGIPR EC50 (cAMP, human adipocytes)” value amounted to 500 pM and the “hGIPR Emax (cAMP, human adipocytes)” value came to 113%.
On the same counts, the results for B4 are 600 pM and 98%.

A further assay concerns the target T2, human GLP-1 receptor. Put plainly: displacement of [125I]GLP-1 from HEK-293 membranes expressing hGLP-1R (SPA beads).
The term IC50 denotes the concentration that inhibits the measured activity by half. Higher therefore signals lower potency. The molecule B1 showed an IC50 of 151000 pM.
For the molecule B2, the IC50 worked out at 115000 pM.
On the same count and under the same terms, next, B3: 41000 pM.
As to B4, the IC50 stood at 221000 pM.
